The values below come from publication PMC2638020, “Large-Scale Structural Analysis of the Classical Human Protein Tyrosine Phosphatome” (Cell, 2009).

The data set deals with the molecule itself. Put plainly: AUC; sedimentation equilibrium; 0.2, 0.4 and 0.8 mg/ml, 7500 and 10,000 rpm; global fit with a self-association model; dimer to monomers.

B1: RPTPγ tandem phosphatase domains (D1-D2), wild type (domain or fragment)
chain: not shown
notes: RPTPγ (PTPRG), human, tandem catalytic domains D1-D2; PDB 2NLK); Vector, tag state and construct limits are in the Supplemental Data; also called PTPRG; RPTPγ D1-D2; source: E. coli BL21(DE3), purified
As to B1, binding was characterised by a dissociation constant (Kd) of 3.5 ± 0.3 µM and the “stoichiometry N” value stood at 2.

For orientation: Kd means the free concentration of one partner at which half of the binding sites on the other are occupied at equilibrium, for simple one-to-one binding. A low value points to higher affinity. Broadly, the stoichiometry N is a count of units in the complex or per binding partner.
